One may read the stoichiometry N as the number of molecules, sites or subunits per partner or assembly.

Where two headings read alike, the source gives them in different places.

The values that follow come from article doi:10.1101/2021.08.05.455185 (bioRxiv, 2021).

Series [1] deals with the molecule itself. Briefly: SEC. For orientation: Size exclusion chromatography separates by hydrodynamic size, large species first.
Series [2] deals with the molecule itself. Briefly: SEC. This is another data set of the same source.

B1: Mycobacterium smegmatis guanosine 5'-monophosphate reductase (Msm GMPR), product of the guaB1 gene (enzyme, UniProt A0QYE8 1-478, looked up)
chain: MRFLDGHTPAYDLTYNDVFVVPGRSDVASRFDVDLSTVDGSGTTIPVVVANMTAVAGRRMAETVARRGGIVVLPQDLPITAVSETVDFVKSRDLVVDTPVTLSPEDSVSDANALLHKRAHGAAVVVFEGRPIGLVTEANCAGVDRFARVRDIALSDFVTAPVGTDPREVFDLLEHAPIDVAVMTAPDGTLAGVLTRTGAIRAGIYTPAVDAKGRLRIAAAVGINGDVGAKAQALAEAGADLLVIDTAHGHQAKMLDAIKAVASLDLGLPLVAGNVVSAEGTRDLIEAGASIVKVGVGPGAMCTTRMMTGVGRPQFSAVVECAAAARQLGGHVWADGGVRHPRDVALALAAGASNVMIGSWFAGTYESPGDLLFDRDDRPYKESYGMASKRAVAARTAGDSSFDRARKGLFEEGISTSRMSLDPARGGVEDLLDHITSGVRSTCTYVGAANLPELHEKVVLGVQSAAGFAEGHPLPAGW
Turning to B1, the figures for the “stoichiometry N” value in series [1] and in series [2] were 4 and 8, respectively.
